Biological target: T1, anti-PDL1 activatable antibody PL07-2001-C5H9v2 (intact)
T1 construct: In the Wes assay the sample is separated by SDS-based capillary electrophoresis before probing; also called AA
Experiment: Wes capillary electrophoresis immunoassay, mouse plasma

T1 sequence (heavy, as listed by the source, chain 1 of 2): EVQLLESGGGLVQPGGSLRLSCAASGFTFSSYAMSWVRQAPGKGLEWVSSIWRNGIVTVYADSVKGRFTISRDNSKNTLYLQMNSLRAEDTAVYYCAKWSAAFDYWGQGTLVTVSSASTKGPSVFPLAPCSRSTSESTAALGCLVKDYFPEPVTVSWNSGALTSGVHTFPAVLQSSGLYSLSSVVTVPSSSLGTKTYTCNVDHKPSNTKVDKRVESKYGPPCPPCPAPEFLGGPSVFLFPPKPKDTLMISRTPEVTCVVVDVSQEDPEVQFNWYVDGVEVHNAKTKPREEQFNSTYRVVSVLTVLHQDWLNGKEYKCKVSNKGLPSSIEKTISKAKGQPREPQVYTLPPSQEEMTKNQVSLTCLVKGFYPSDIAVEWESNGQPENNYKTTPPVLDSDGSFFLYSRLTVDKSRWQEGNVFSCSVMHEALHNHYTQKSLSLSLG
T1 sequence (light, as listed by the source, chain 2 of 2): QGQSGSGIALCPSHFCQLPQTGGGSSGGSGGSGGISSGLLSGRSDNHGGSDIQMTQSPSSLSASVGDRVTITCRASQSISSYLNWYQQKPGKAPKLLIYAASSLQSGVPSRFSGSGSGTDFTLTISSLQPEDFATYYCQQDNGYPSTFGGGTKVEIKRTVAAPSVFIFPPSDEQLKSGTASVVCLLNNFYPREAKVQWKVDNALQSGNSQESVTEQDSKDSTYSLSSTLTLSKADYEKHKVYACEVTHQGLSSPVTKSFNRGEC

binding result: binds
B1: anti-idiotypic antibody 17G1 (antibody, mouse IgG2a, kappa, V domains shown)
VH: EVQLVESGGDLVKPGGSLKVSCAASGFTFSSYGMSWVRQTPDKRLEWVATISPSGIYTYYPVTVKGRFTISRDNAKNTLYLQMSSLKSEDTAMYFCARHHPNYGSTYLYYIDYWGQGTALTVSS
VL: NIMMTQSPSSLAVSAGEKVTMACKSSQSVFSSSNQKNYLAWYQQKPGQSPKILIYWAFTRESGVPDRFSGSGSGTDFTLTISSVQAEDLAVYYCYQYLSSLTFGAGTKLEVKA
notes: Mouse monoclonal, mIgG2a heavy chain and mouse kappa light chain; also called anti-id antibody 17G1; anti-id 17G1 antibody
